Experimental data published in the RNAGym collection of RNA variant scans (doi:10.1073/pnas.2313332121).

B1: TPR t1 (parent)
chain: GACCAAUCUGCCCUCAGAGCUCGAGAACAUCUUCGGAUGCAGAGGAGGCAGGCUUCGGUGGCGCGAUAGCGCCAACGUCCUCAACCUCCAAUGCAUCCCACCACAUGAUGAUGCCUGAAGAGCCUUGGUUUUUUG

Variants of: B1
Assay: polymerase ribozyme fitness, log enrichment relative to wild type (log ratio); higher = more active; in vitro selection for triplet polymerase activity
In short: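 A single round of triplicate in vitro selection, including frozen incubation at −7 °C, was applied to PCR-built, transcribed mutant libraries of each subunit of a heterodimeric triplet polymerase ribozyme. Illumina sequencing of input and output libraries retained genotypes with ≥10 input reads and ≥1 read per output. Fitness is the base-2 logarithm of genotype enrichment divided by wild-type enrichment, from inverse-variance-weighted replicate averages.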

| Variant | polymerase ribozyme fitness (log ratio) |
| --- | --- |
| GACCAAUCUGCCCUCAGAGCUCGAGAACAUCUUCGGAUGCACACGAGGCAGGCUUCGGUGGCGCGAUAGCGCCAACGUCCCCAACCUCCAAUGCAUCCCACCACAUGAUGAUGCCUGAAAAGCCUUGGUUUUUUG | -2.45 |
| GACCAAUCUGCCCUCAGAGCUCGAGAACAUCUUCGGAUGCACACGAGGCAGGCUUUGGUGGCGCGAUAGCGCCAACGUCCUCAACCUCCAAUGCAUCCCACCAUAUGAUGAUGCCUGAAGAGCCUUGGUUUUUUG | -0.811 |
| GACCAAUCUGCCCUCAGAGCUCGAGAACAUCUUCGGAUGCACAGGAGGCAGGCUUCGGUGGCGCGAUAGCGCCAACGUCCUCAACCUCCAGUGCAUCCCACCACAUGAUGAAGCCUGAAGAGCCUUGGUUUUUUG | -0.613 |
| GACCAAUCUGCCCUCAGAGCUCGAGAACAUCUUCGGAUGCAAAGGAGGCAGGCUUCGGUUGCGCGAUAUCGCCAACGUCCUCAACCUCCAAUGCAUCCCACCACAUGAUGAUGCCUGAAGAGCCUUGGUUUUUUG | -6.05 |
| GACCAAUCUGCCCUCAGAGCUCGAGAACAUCUUCGGAUGCACAGGAGACAGGCUUCGGUGGCGCGAUAGCGGCAACGUCCUCAACCUCCAAUGCAUCCCACCACAUGAUGAUGCCUGAAAAGCCUUGGUUUUUUG | -1.67 |
| GACCAAUCUGCCCUCAGAGCUCGAGAACAUCUUCGGAUGCAAAGGAGGCAGGCUUCGGUGGCGCGAUAGCGCCAACGUCCACAACCUCCAAUGCAUCCCACCACAUGAUGAUGCCUGAAGAGCCUUGGUUUUUUG | -4.25 |
| GACCAAUCUGCCCUCAGAGCUCGAGAACAUCUUCGGAUGCACAGGAGGCAGGCUUCGGUGGCGAGAUAGCGCCAACGUCCUCAACCUCCAAUGCAUCCCACCACAUGAUGAUGCCUGAAGAGCCUUGGUUUUUUG | -7.59 |
| GACCAAUCUGCCCUCAGAGCUCGAGAACAUCUUCGGAUGCAAAGGAGGCAGGCUUCGGUGGCGCGAUAGCGCCAACGACCUCAACCCCCAAUGCAUCCCACCACAUGAUGAUGUCUGAAGAGCCUUGGUUUUUUG | -2.27 |
| GACCAAUCUGCCCUCAGAGCUCGAGAACAUCUUCGGAUGCAAAGGAGGCAGGCUUCGGUGGCGCGAUAGCGCCAACGUCCUCAACCUCCAAUGCAUCCCACCACAUGAUGAUGCCUGAAGAGCCUUGCUUUUUUG | -4.63 |
| GACCAAUCUGCCCUCAGAGCUCGAGAACAUCUUCGGAUGCACAGGAGGCAGGCUUCGGUCGCGCGAUAGCGCCAACCACCUCAACCUCCAAUGCAUCCCACCACAUGAUGAUGCCUGAAGAGCCUUGGUGUUUUC | -3.55 |
| GACCAAUCUGCCCUCAGAGCUCGAGAACAUCUUCGGAUGCAAAGGAGGCAGGCUUCGGUGGCGCGAUAGCGCCAACGUCCUCAACCUCCAAUGCAUCCCACCACAUGAUGAUGCCUAAAGAGCCUUGGUUUUUUG | -2.65 |
| GACCAAUCUGCCCUCAGAGCUCGAGAACAUCUUCGGAUGCAAAGGAGGCAGGCUUCGGUGGCGCGAUAUCGCCAACGUCCUCAACCUCCAAUGCAUCCCACCACAUGAUGAUGCCUGAAGAGCCUUGGUUUUUUG | -0.125 |
| GACCAAUCUGCCCUCAGAGCUCGAGAACAUCUUCGGAUGCACAGGCGGCAGGCUUCGGUGGUGCGAUAGCGCCAACGUCCUCAACCUCCAAUGCGGCCCACCACAUGAUGAUGCCUGAAGAGCCUUGGUUUUUUG | -4 |
| GACCAAUCUGCCCUCAGAGCUCGAGAACAUCUUCGGAUGCACCGGAGGCAGGCUUCGGUGGCGCGAUAGCACCAACGUCCACAACCUCCAAUGCAUCCCACCACAUGAUGAUGCCUGAAUAGCCUUGGUUUUUUG | -6.28 |
| GACCAAUCUGCCCUCAGAGCUCGAGAACAUCUUCGGAUGCACAGGUGGCAGGCUUCGGUCGCGCGAUAGCGCCAACGUCCUCAACCUCCAAUGCAUCCCACCACAUGAUGAUGCCUGAAGAGCCUUGGUUUUUUG | -2.77 |
| GACCAAUCUGCCCUCAGAGCUCGAGAACAUCUUCGGAUGCAAAGGAGGCAGGCUUCGGUGGCGCGAUAGCGCCAACGGCCUCAACCCCCAAUGCAUCCCACCACAUGAUGAUGUCUGAAGAGCCUUGGUUUUUUG | -2.18 |
| GACCAAUCUGCCCUCAGAGCUCGAGAACAUCUUCGGAUGCAAAGGAGGCAGGCUUCGGUGGCGCGAUAGCUCCAACGUCCUCAACCUCCAAUGCAUCCCACCACAUGAUGAUGCCUGAUGAGCCUUGGUUUUUUG | -2.99 |
| GACCAAUCUGCCCUCAGAGCUCGAGAACAUCUUCGGAUGCACAGGAGGCAGGCUUCGGUGGCGCGAUAGCGCCAACGUCCUCAACCUCCAAUGCAUCCCACCACAUGAUGGUGCCUGAAGCGCCUUGGUUUUUUG | -1.57 |
| GACCAAUCUGCCCUCAGAGCUCGAGAACAUCUUCGGAUGCACAGGAGGCAGACUUCGGUUGCGCGAUAGCGCCAACGUCCUCAACCUCCAAUGCAUCCCAUCAAAUGAUGAUGCCUGAAGAGCCUUGGUUUUUUG | -5.59 |
| GACCAAUCUGCCCUCAGAGCUCGAGAACAUCUUCGGAUGCAAAGGAGGCAGGCUUCGGUGCCGCGAUAGCGCCAACGUCCUCAACCUCCAAUGCAUCCCACCACAUGAUGAUGCCUGAAGAGCCUUGGUUUUAUG | -5.31 |
| GACCAAUCUGCCCUCAGAGCUCGAGAACAUCUUCGGAUGCAAAGGAGGCAGGCUUCGGUGGCGCGAUAGCGCCAACGUCCUCAACCUCCAAUGCAACCCACCACAUGAUGAUGCCUGAAGAGCCUUGGUUUUUUG | -2.83 |

| Variant | polymerase ribozyme fitness (log ratio) |
| --- | --- |
| GACCAAUCUGCCCUCAGAGCUCGAGAACAUCUUCGGAUGCAAAGGAGGCAGGCUUCGGUGGCGCGAUAUCGCCAAAGUCCUCAACCUCCAAUGCAUCCCACCACAUGAUGAUGCCUGAAGUGCCUUGGUUUUUUG | -3.23 |
| GACCAAUCUGCCCUCAGAGCUCGAGAACAUCUUCGGAUGCAAAGGAGGCAGGCUUCGGUGGCGCGAUAGCUCCAACGUCCUCAACCUCCAAUGCAUCCCACCACAUGAUGAUGCCUGAAGAGCCUUGGUUUUUUG | -2.41 |
| GACCAAUCUGCCCUCAGAGCUCGAGAACAUCUUCGGAUGCAAAGGAGCCAGGCUUCGGUGGAGCGAUAGCGCCAACGUCCUCAACCUCCAAUGCAUCCCACCACAUGAUGAUGCCUGAUGAGCAUUGGUUUUUUG | -3.3 |
| GACCAAUCUGCCCUCAGAGCUCGAGAACAUCUUCGGAUGCACAGGAGGCAGGCUUCGGUGGCGCGAUAGAGCCAACGUCCUCAACCUCCAAUGCAUCCCACCACAUGAUGAUGCCUGAAGAGCCUUGGUUUUUUG | -4.99 |
| GACCAAUCUGCCCUCAGAGCUCGAGAACAUCUUCGGAUGCACAGGAGGCAGGCUUCGGUGGCGCGAUAGCGCCAACGUCCUCAACCUCCAAUGCAUCCCACCACAUGAUGAUGCCUGAAGAGCCUUGGUUUUUUG | -1.3 |
| GACCAAUCUGCCCUCAGAGCUCGAGAACAUCUUCGGAUGCACAGGUGGCAGGCUUCGGUGGCGCGAUAGCGCCAACGUCCUCAACCUCCAAUGCAUCCCACCACAUGAUGAUGCCUGAAGAGCCUUGGUUUUUUG | -2.24 |
| GACCAAUCUGCCCUCAGAGCUCGAGAACAUCUUCGGAUGCAAAGGAGGCAGGCUUCGGUGGCUCGAUAGCGCCAACGUCCUCAACCUCCAAUGCAUCCCACCACAUGAUGAUGCCUGAAGAGCCUUGGUUUUUUG | -3.48 |
| GACCAAUCUGCCCUCAGAGCUCGAGAACAUCUUCGGAUGCACAUGAGGCAGGCUUCGGUGGCGGGAUAGCGCCAACGUCCUCAACCUCCAAUGCAUCCCACCACAUGAUGAUUCCUGAAGAGCCUUGGUUUUUUG | -5.99 |
| GACCAAUCUGCCCUCAGAGCUCGAGAACAUCUUCGGAUGCAAAGGAGGCAGGCUUCGGUAGCGCGAUAGCGCCAACGUCCUCAACCUCCAAUGCAUCCCACCACAUGAUGAUGCCUGAAGAGCCUUGGUUUUUUG | -2.03 |
| GACCAAUCUGCCCUCAGAGCUCGAGAACAUCUUCGGAUGCAAAGGAGGCAGGCUUCGGUGUCGCGAUAGCGCCAACGUCCUCAACCUCCAAUGCAUCCCACCACAUGAUGAUGCCUGAAGAGCCUUGGUUUUUUG | -2.48 |
| GACCAAUCUGCCCUCAGAGCUCGAGAACAUCUUCGGAUGCAAAGGAGGCAGGCUUCGGUGGCGCGAUAGCGCCAACGUCCUCAACCUCCAAUGCAUCCCACCACAUGAUGAUGCCUGAAGAGCCUUGGAUUUUUG | -3.37 |
| GACCAAUCUGCCCUCAGAGCUCGAGAACAUCUUCGGAUGCACAGGAGGCAGGCUUCAGUGGCGCGAUAGCGCCAACGUCCUCAACCUCCAAUGCAUCCCACCACAUGAUGAUGCCUGAAGAGCCUUGGUUUUUUG | -3.88 |
| GACCAAUCUGCCCUCAGAGCUCGAGAACAUCUUCGGAUGCACAGGAGGCAGGCUUUGGUGGCGCGAUAUCGCCAACGUCCUCAACCUCCAAUACAUCCCACCACAUGAUGAUGCCUGAACAGCCUUGGUUGUUUG | -3.67 |
| GACCAAUCUGCCCUCAGAGCUCGAGAACAUCUUCGGAUGCAAAGGAGGCAGGCUCCGGUGGCGCGAUAGCGCCAACGUCCUCAACCUCCAAUGCAUCCCACCACAUGAUGAUGCCUGAAGAGCCUUGGUUUUUUG | -2.24 |
| GACCAAUCUGCCCUCAGAGCUCGAGAACAUCUUCGGAUGCACAGGAGGCAGGCUUCGGUGUCGCGAUAGCGCCAACGUCCUCAACCUCCAAUGCAUCCCACCACAUGAUGAUGCCUGAAGAGCCUUGGUUUUUUG | -1.04 |
| GACCAAUCUGCCCUCAGAGCUCGAGAACAUCUUCGGAUGCACAGGAGGCAGGCUUCGAUGGCGCGAUAGCGCCAACGUCCUCAACCUCCAAUGCAUCCCACCACAUGAUGAUGCCUGAAUAGCCUUGGUUUUUUG | -1.82 |
| GACCAAUCUGCCCUCAGAGCUCGAGAACAUCUUCGGAUGCACAGGAGGCAGGCUUCGGUGACGCGAUAGCGCCAACGUCCUUAACCUCCAAUGCAUCCCACCACAUGAUGAUGCCAGAAGAGCCUUGGUUUUUUG | -4.34 |
| GACCAAUCUGCCCUCAGAGCUCGAGAACAUCUUCGGAUGCAAAGGAGGCAGGCUUCGGUGGCACGAUAGCGCCAACGUCCUCUACCUCCAAUGCAUCCCACCACAUGAUGAUGCCUGAAGUGCCUUGGUUUUUUG | -3.11 |
| GACCAAUCUGCCCUCAGAGCUCGAGAACAUCUUCGGAUGCAAAGGAGGCAGGCUUCGGUGGCCCGAUAGCGCCAACGUCCUCAACCUCCAAUGCAUCCCACCACAUGAUGAUGCCUGAAGAGCCUUGGUUUUGUG | -3.43 |
| GACCAAUCUGCCCUCAGAGCUCGAGAACAUCUUCGGAUGCACCGGAGGCAGGCUUCGGUGGCGCGAUAGCGCCAACGUCCUCAACCUCCAAUGCAUCCCACCACAUGAUGAUGCAUGAAGAGCCUUGGUUUUUUG | -1.55 |
| GACCAAUCUGCCCUCAGAGCUCGAGAACAUCUUCGGAUGCACAGGAGGCAGGCUUCAGUGGCGCGAUAGCGCCAACGUCCUCAACCUCCAAUGCAUCCCACCACUUGAUGAUGCCUGAAGAGCCUUGGUUUUUUG | -5.05 |
